Results taken from patent publication US20230391845A1, “GLP-1, GIP AND GLUCAGON RECEPTOR TRIPLE AGONISTS” (priority 2020, published 2023).
Where no end group is shown, it is not given here. [ ]: non-standard residue; d: D form. Aib = CC(C)(N)C(=O)O

Legend:
Assay in all cases: cell-based or functional assay
[1] = biological target: T1, human glucose-dependent insulinotropic polypeptide receptor (human, UniProt P48546 22-466)
T1 sequence (looked up): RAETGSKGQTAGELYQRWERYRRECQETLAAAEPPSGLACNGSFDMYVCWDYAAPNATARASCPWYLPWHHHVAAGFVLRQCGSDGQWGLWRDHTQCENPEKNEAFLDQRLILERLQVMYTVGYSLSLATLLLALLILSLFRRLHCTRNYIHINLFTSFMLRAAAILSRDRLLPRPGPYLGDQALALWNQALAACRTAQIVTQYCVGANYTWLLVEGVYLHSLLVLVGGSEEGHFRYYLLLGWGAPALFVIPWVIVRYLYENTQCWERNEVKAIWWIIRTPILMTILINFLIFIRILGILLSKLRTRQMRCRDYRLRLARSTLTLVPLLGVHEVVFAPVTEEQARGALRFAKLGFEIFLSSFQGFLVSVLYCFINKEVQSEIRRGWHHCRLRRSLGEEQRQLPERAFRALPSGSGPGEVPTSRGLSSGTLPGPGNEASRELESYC

human glucagon receptor = human glucagon receptor (human, UniProt P47871 26-477)
Chain of human glucagon receptor (P47871 26-477): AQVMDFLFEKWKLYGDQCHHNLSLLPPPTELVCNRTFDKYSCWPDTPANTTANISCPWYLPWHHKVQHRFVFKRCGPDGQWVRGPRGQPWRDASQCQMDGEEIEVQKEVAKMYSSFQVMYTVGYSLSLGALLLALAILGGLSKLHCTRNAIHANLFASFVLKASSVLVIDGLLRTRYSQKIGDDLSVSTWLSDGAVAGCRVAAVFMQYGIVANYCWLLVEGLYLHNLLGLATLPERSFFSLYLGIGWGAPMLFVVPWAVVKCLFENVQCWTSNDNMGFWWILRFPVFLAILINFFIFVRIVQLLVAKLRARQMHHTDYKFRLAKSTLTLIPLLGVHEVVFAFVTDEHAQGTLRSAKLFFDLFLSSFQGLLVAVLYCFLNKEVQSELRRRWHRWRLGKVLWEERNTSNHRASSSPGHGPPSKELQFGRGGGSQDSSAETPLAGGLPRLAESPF

[2] = biological target: human glucagon-like peptide 1 receptor (human, UniProt P43220 24-463)

B1: Compound No. 44 (peptide)
peptide: H[Aib]HGTFTSDYSIYLEKQAA[Aib]EFVQWLLEGGPSSGAPPPS-NH2
modifications: not fully specified (residue 16); printed as H-Aib-HGTFTSDYSIYLE-K[2-[2-[2-[[2-[2-[2-[[(4S)-4-carboxy-4-(19-carboxynonadecanoylamino)butanoyl]amino]ethoxy]ethoxy]acetyl]amino]ethoxy]ethoxy]acetyl]-QAA-Aib-EFVQWLLEGGPSSGAPPPS-NH2
Q: Which “hGIPR CRE Luc EC50 (pM)” value [1] does the source give for B1 here?
A: 6.1 pM

Q: And the “hGcgR CRE Luc EC50 (pM)” value (human glucagon receptor)?
A: 45.2 pM

Q: What about the “hGLP-1R CRE Luc EC50 (pM)” value [2] of the same binder?
A: 1.8 pM

B2: Compound No. 49 (peptide)
peptide: H[Aib]HGTFTSDYSILLEKQAAEEFVQWLLEGGPSSGAPPPS-NH2
modifications: not fully specified (residue 16); printed as H-Aib-HGTFTSDYSILLE-K[(2S)-2-amino-6-[[(2S)-2-amino-6-[[(4S)-4-carboxy-4-(19-carboxynonadecanoylamino)butanoyl]amino]hexanoyl]amino]hexanoyl]-QAAEEFVQWLLEGGPSSGAPPPS-NH2
Q: For B2, which “hGIPR CRE Luc EC50 (pM)” value [1] is on record?
A: 2.1 pM

Q: What about the “hGcgR CRE Luc EC50 (pM)” value (human glucagon receptor) of the same binder?
A: 3.5 pM

Q: What about the “hGLP-1R CRE Luc EC50 (pM)” value [2] of the same binder?
A: 1.4 pM

B3: Compound No. 36 (peptide)
peptide: H[Aib]HGTFTSDYSKYLEKQAA[Aib]EFVQWLLEGGPSSGAPPPS-NH2
modifications: not fully specified (residue 16); printed as H-Aib-HGTFTSDYSKYLE-K[(2S)-2-amino-6-[[(2S)-2-amino-6-[[(4S)-4-carboxy-4-(19-carboxynonadecanoylamino)butanoyl]amino]hexanoyl]amino]hexanoyl]-QAA-Aib-EFVQWLLEGGPSSGAPPPS-NH2
Q: With B3 as the binder, how does the “hGIPR CRE Luc EC50 (pM)” value [1] read?
A: 9.3 pM

Q: What about the “hGcgR CRE Luc EC50 (pM)” value (human glucagon receptor) of the same binder?
A: 11.4 pM

Q: And the “hGLP-1R CRE Luc EC50 (pM)” value [2]?
A: 1.8 pM

B4: Compound No. 41 (peptide)
peptide: H[Aib]HGTFTSDYSILLEKKYA[Aib]EFVQWLLEGGPSSGAPPPS-NH2
modifications: not fully specified (residue 16); printed as H-Aib-HGTFTSDYSILLE-K[(2S)-2-amino-6-[[(2S)-2-amino-6-[[(4S)-4-carboxy-4-(19-carboxynonadecanoylamino)butanoyl]amino]hexanoyl]amino]hexanoyl]-KYA-Aib-EFVQWLLEGGPSSGAPPPS-NH2
Q: For B4, which “hGIPR CRE Luc EC50 (pM)” value [1] is on record?
A: 9.3 pM

Q: What about the “hGcgR CRE Luc EC50 (pM)” value (human glucagon receptor) of the same binder?
A: 7.6 pM

Q: And the “hGLP-1R CRE Luc EC50 (pM)” value [2]?
A: 4.3 pM

B5: Compound No. 46 (peptide)
peptide: Y[Aib]QGTFTSDYSILLEKQAA[Aib]EFVQWLLEGGPSSGAPPPS-NH2
modifications: not fully specified (residue 16); printed as Y-Aib-QGTFTSDYSILLE-K[(2S)-2-amino-6-[[(2S)-2-amino-6-[[(4S)-4-carboxy-4-(19-carboxynonadecanoylamino)butanoyl]amino]hexanoyl]amino]hexanoyl]-QAA-Aib-EFVQWLLEGGPSSGAPPPS-NH2
Q: B5 was tested. Which “hGIPR CRE Luc EC50 (pM)” value [1] did it give?
A: 3 pM

Q: And the “hGcgR CRE Luc EC50 (pM)” value (human glucagon receptor)?
A: 25 pM

Q: What about the “hGLP-1R CRE Luc EC50 (pM)” value [2] of the same binder?
A: 8.3 pM

B6: Compound No. 48 (peptide)
peptide: Y[Aib]QGTFTSDYSYLLEKQAA[Aib]EFVQWLLEGGPSSGAPPPS-NH2
modifications: not fully specified (residue 16); printed as Y-Aib-QGTFTSDYSYLLE-K[(2S)-2-amino-6-[[(2S)-2-amino-6-[[(4S)-4-carboxy-4-(19-carboxynonadecanoylamino)butanoyl]amino]hexanoyl]amino]hexanoyl]-QAA-Aib-EFVQWLLEGGPSSGAPPPS-NH2
Q: Which results are given for B6?
A: hGIPR CRE Luc EC50 (pM) [1]: 9.2 pM; hGcgR CRE Luc EC50 (pM) (human glucagon receptor): 12.6 pM; hGLP-1R CRE Luc EC50 (pM) [2]: 10.1 pM

B7: Compound No. 42 (peptide)
peptide: H[Aib]HGTFTSDYSYLLEKQAA[Aib]EFVQWLLEGGPSSGAPPPS-NH2
modifications: not fully specified (residue 16); printed as H-Aib-HGTFTSDYSYLLE-K[(2S)-2-amino-6-[[(2S)-2-amino-6-[[(4S)-4-carboxy-4-(19-carboxynonadecanoylamino)butanoyl]amino]hexanoyl]amino]hexanoyl]-QAA-Aib-EFVQWLLEGGPSSGAPPPS-NH2
Q: Which “hGIPR CRE Luc EC50 (pM)” value [1] does the source give for B7 here?
A: 3.8 pM

Q: What about the “hGcgR CRE Luc EC50 (pM)” value (human glucagon receptor) of the same binder?
A: 8 pM

Q: What about the “hGLP-1R CRE Luc EC50 (pM)” value [2] of the same binder?
A: 1.9 pM

B8: Compound No. 38 (peptide)
peptide: H[Aib]HGTFTSDYSIYLEKKYA[Aib]EFVQWLLEGGPSSGAPPPS-NH2
modifications: not fully specified (residue 16); printed as H-Aib-HGTFTSDYSIYLE-K[(2S)-2-amino-6-[[(2S)-2-amino-6-[[(4S)-4-carboxy-4-(17-carboxyheptadecanoylamino)butanoyl]amino]hexanoyl]amino]hexanoyl]-KYA-Aib-EFVQWLLEGGPSSGAPPPS-NH2
Q: How did the “hGIPR CRE Luc EC50 (pM)” value [1] turn out when B8 was run?
A: 13.1 pM

Q: What about the “hGcgR CRE Luc EC50 (pM)” value (human glucagon receptor) of the same binder?
A: 6.4 pM

Q: And the “hGLP-1R CRE Luc EC50 (pM)” value [2]?
A: 2.8 pM

B9: Compound No. 39 (peptide)
peptide: H[Aib]HGTFTSDYSIYLEKKYA[Aib]EFVQWLLEGGPSSGAPPPS-NH2
modifications: not fully specified (residue 16); printed as H-Aib-HGTFTSDYSIYLE-K[2-[2-[2-[[2-[2-[2-[[(4S)-4-carboxy-4-(19-carboxynonadecanoylamino)butanoyl]amino]ethoxy]ethoxy]acetyl]amino]ethoxy]ethoxy]acetyl]-KYA-Aib-EFVQWLLEGGPSSGAPPPS-NH2
Q: How did the “hGIPR CRE Luc EC50 (pM)” value [1] turn out when B9 was run?
A: 17.9 pM

Q: And the “hGcgR CRE Luc EC50 (pM)” value (human glucagon receptor)?
A: 12.9 pM

Q: What about the “hGLP-1R CRE Luc EC50 (pM)” value [2] of the same binder?
A: 4.4 pM

B10: Compound No. 37 (peptide)
peptide: H[Aib]HGTFTSDYSIYLEKRAA[Aib]EFVQWLLEGGPSSGAPPPS-NH2
modifications: not fully specified (residue 16); printed as H-Aib-HGTFTSDYSIYLE-K[(2S)-2-amino-6-[[(2S)-2-amino-6-[[(4S)-4-carboxy-4-(19-carboxynonadecanoylamino)butanoyl]amino]hexanoyl]amino]hexanoyl]-RAA-Aib-EFVQWLLEGGPSSGAPPPS-NH2
Q: How did the “hGIPR CRE Luc EC50 (pM)” value [1] turn out when B10 was run?
A: 10.8 pM

Q: And the “hGcgR CRE Luc EC50 (pM)” value (human glucagon receptor)?
A: 11.8 pM

Q: What about the “hGLP-1R CRE Luc EC50 (pM)” value [2] of the same binder?
A: 1.8 pM

B11: Compound No. 40 (peptide)
peptide: H[Aib]HGTFTSDYSYYLEKQAA[Aib]EFVQWLLEGGPSSGAPPPS-NH2
modifications: not fully specified (residue 16); printed as H-Aib-HGTFTSDYSYYLE-K[2-[2-[2-[[2-[2-[2-[[(4S)-4-carboxy-4-(19-carboxynonadecanoylamino)butanoyl]amino]ethoxy]ethoxy]acetyl]amino]ethoxy]ethoxy]acetyl]-QAA-Aib-EFVQWLLEGGPSSGAPPPS-NH2
Q: Which “hGIPR CRE Luc EC50 (pM)” value [1] does the source give for B11 here?
A: 5.7 pM

Q: And the “hGcgR CRE Luc EC50 (pM)” value (human glucagon receptor)?
A: 36.4 pM

Q: What about the “hGLP-1R CRE Luc EC50 (pM)” value [2] of the same binder?
A: 3.7 pM

B12: Compound No. 43 (peptide)
peptide: H[Aib]HGTFTSDYSILLEKQAA[Aib]EFVQWLLEGGPSSGAPPPS-NH2
modifications: not fully specified (residue 16); printed as H-Aib-HGTFTSDYSILLE-K[(2S)-2-amino-6-[[(2S)-2-amino-6-[[(4S)-4-carboxy-4-(19-carboxynonadecanoylamino)butanoyl]amino]hexanoyl]amino]hexanoyl]-QAA-Aib-EFVQWLLEGGPSSGAPPPS-NH2
Q: How did the “hGIPR CRE Luc EC50 (pM)” value [1] turn out when B12 was run?
A: 2.8 pM

Q: What about the “hGcgR CRE Luc EC50 (pM)” value (human glucagon receptor) of the same binder?
A: 10.8 pM

Q: What about the “hGLP-1R CRE Luc EC50 (pM)” value [2] of the same binder?
A: 3 pM

B13: Compound No. 47 (peptide)
peptide: Y[Aib]QGTFTSDYSYYLEKQAA[Aib]EFVQWLLEGGPSSGAPPPS-NH2
modifications: not fully specified (residue 16); printed as Y-Aib-QGTFTSDYSYYLE-K[(2S)-2-amino-6-[[(2S)-2-amino-6-[[(4S)-4-carboxy-4-(19-carboxynonadecanoylamino)butanoyl]amino]hexanoyl]amino]hexanoyl]-QAA-Aib-EFVQWLLEGGPSSGAPPPS-NH2
Q: Which “hGIPR CRE Luc EC50 (pM)” value [1] does the source give for B13 here?
A: 14.9 pM

Q: And the “hGcgR CRE Luc EC50 (pM)” value (human glucagon receptor)?
A: 28.7 pM

Q: And the “hGLP-1R CRE Luc EC50 (pM)” value [2]?
A: 5.6 pM

B14: Compound No. 45 (peptide)
peptide: H[Aib]HGTFTSDYSILLEKQAA[Aib]EFVQWLLEGGPSSGAPPPS-NH2
modifications: not fully specified (residue 16); printed as H-Aib-HGTFTSDYSILLE-K[2-[2-[2-[[2-[2-[2-[[(4S)-4-carboxy-4-(19-carboxynonadecanoylamino)butanoyl]amino]ethoxy]ethoxy]acetyl]amino]ethoxy]ethoxy]acetyl]-QAA-Aib-EFVQWLLEGGPSSGAPPPS-NH2
Q: With B14 as the binder, how does the “hGIPR CRE Luc EC50 (pM)” value [1] read?
A: 1.9 pM

Q: And the “hGcgR CRE Luc EC50 (pM)” value (human glucagon receptor)?
A: 6.8 pM

Q: What about the “hGLP-1R CRE Luc EC50 (pM)” value [2] of the same binder?
A: 2.4 pM
